Results from the supplement of paper PMC7125110.
± gives the standard error. Variants at the floor of the assay were thinned out.

B1: glmS ribozyme (parent)
chain: AUAAAAGCGCCAGAACUACAGAAAUGUAGUUGACGAGGAGGAGGUUUAUCGAAUUUUCGGCGGAUGCCUCCAAA

Tests used:
Conditions in all cases: with glucosamine-6-phosphate
glucosamine-6-phosphate [1] = variants of: B1; assay: self-cleavage kobs at 40 uM GlcN6P; higher = faster cleavage; RNA array
In short: (§1)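 Barcoded glmS ribozyme variants on sequenced MiSeq chips were transcribed in situ by E. coli RNA polymerase and tracked through a hybridised Cy3 probe at 37 °C. Glucosamine-6-phosphate (40 μM to 10 mM) in HEPES/KCl/Mg(OAc)2 buffer was flowed in, and tiles were imaged over ~14 h. Signals were normalised to baseline and to non-cleaving reference variants; per-tile medians were fit to one- or two-exponential decays to give kobs. kcat and KM came from weighted Michaelis–Menten fits across concentrations.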

glucosamine-6-phosphate [2] = variants of: B1; assay: self-cleavage kobs at 160 uM GlcN6P; higher = faster cleavage; RNA array
In short: as §1

glucosamine-6-phosphate [3] = variants of: B1; assay: self-cleavage kobs at 10000 uM GlcN6P; higher = faster cleavage; RNA array
In short: as §1

glucosamine-6-phosphate [4] = variants of: B1; assay: self-cleavage kobs at 640 uM GlcN6P; higher = faster cleavage; RNA array
In short: as §1

glucosamine-6-phosphate [5] = variants of: B1; assay: self-cleavage kobs at 2500 uM GlcN6P; higher = faster cleavage; RNA array
In short: as §1

Variant | self-cleavage kobs at 40 uM GlcN6P (glucosamine-6-phosphate [1]) [s⁻¹] | self-cleavage kobs at 160 uM GlcN6P (glucosamine-6-phosphate [2]) [s⁻¹] | self-cleavage kobs at 10000 uM GlcN6P (glucosamine-6-phosphate [3]) [s⁻¹] | self-cleavage kobs at 640 uM GlcN6P (glucosamine-6-phosphate [4]) [s⁻¹] | self-cleavage kobs at 2500 uM GlcN6P (glucosamine-6-phosphate [5]) [s⁻¹]
A42U G60A | < 1e-05 | < 1e-05 | < 1e-05 | – | –
G43U U47A | < 1e-05 | – | – | – | –
G41U G43A | < 1e-05 | – | < 1e-05 | < 1e-05 | < 1e-05
A42U U54C U55C | < 1e-05 | – | 8.78e-05 ± 1.3e-05 | – | 5.79e-05 ± 1.6e-05
A42G C61G | < 1e-05 | < 1e-05 | < 1e-05 | < 1e-05 | –
U46G U47G C67A | 7.27e-05 ± 2e-05 | – | 0.0021 ± 0.00039 | – | –
G44U C58U C71U | < 1e-05 | – | < 1e-05 | < 1e-05 | < 1e-05
A42C G62U | < 1e-05 | – | < 1e-05 | < 1e-05 | < 1e-05
A42G G43C | < 1e-05 | – | < 1e-05 | < 1e-05 | –
G43U G63C | < 1e-05 | < 1e-05 | – | < 1e-05 | < 1e-05
G43U G63U | < 1e-05 | < 1e-05 | < 1e-05 | – | < 1e-05
G44A U47C | < 1e-05 | < 1e-05 | < 1e-05 | < 1e-05 | < 1e-05
U46A U57C | < 1e-05 | – | – | – | –
U46A U57G | < 1e-05 | < 1e-05 | – | – | –
G43C A48U C50U C58A C67U | < 1e-05 | – | – | < 1e-05 | –
U46G C67G C68G | 2.82e-05 ± 1.4e-05 | – | – | – | 7.29e-05 ± 2.5e-05
G41U U46G G59C | < 1e-05 | – | < 1e-05 | < 1e-05 | < 1e-05
G41A G60A G62U C70A | < 1e-05 | – | – | – | –
U47A A53G | 0.000816 ± 9.9e-05 | 0.00166 ± 0.0003 | 0.04 ± 0.011 | 0.00725 ± 0.0013 | 0.0106 ± 0.0028
U47A A53C | 0.000173 ± 2.9e-05 | 0.000506 ± 7.8e-05 | 0.00663 ± 0.0016 | 0.00103 ± 0.00018 | 0.00465 ± 0.001
A42C U65C | < 1e-05 | < 1e-05 | < 1e-05 | < 1e-05 | < 1e-05
G44C C71G | < 1e-05 | < 1e-05 | < 1e-05 | < 1e-05 | < 1e-05
G44C C71A | < 1e-05 | < 1e-05 | – | < 1e-05 | –
G43A G51C U54C C71U | < 1e-05 | – | – | < 1e-05 | < 1e-05
G44A C67U | 0.000707 ± 7e-05 | 0.00265 ± 0.00064 | 0.0388 ± 0.0061 | 0.00449 ± 0.0011 | 0.006 ± 0.0018
G43C A53G | < 1e-05 | < 1e-05 | – | < 1e-05 | –
G43A A64G | < 1e-05 | < 1e-05 | 4.35e-05 ± 1.7e-05 | – | –

Variant | self-cleavage kobs at 40 uM GlcN6P (glucosamine-6-phosphate [1]) [s⁻¹] | self-cleavage kobs at 160 uM GlcN6P (glucosamine-6-phosphate [2]) [s⁻¹] | self-cleavage kobs at 10000 uM GlcN6P (glucosamine-6-phosphate [3]) [s⁻¹] | self-cleavage kobs at 640 uM GlcN6P (glucosamine-6-phosphate [4]) [s⁻¹] | self-cleavage kobs at 2500 uM GlcN6P (glucosamine-6-phosphate [5]) [s⁻¹]
G41C C58U G59C | < 1e-05 | – | – | – | –
U45G A52C U55C C71U | < 1e-05 | – | – | – | –
G44C C58U | < 1e-05 | < 1e-05 | < 1e-05 | < 1e-05 | < 1e-05
G43C A52C U54G | < 1e-05 | – | < 1e-05 | < 1e-05 | –
G44A C68G | < 1e-05 | < 1e-05 | < 1e-05 | < 1e-05 | < 1e-05
G44A A48G | < 1e-05 | < 1e-05 | < 1e-05 | < 1e-05 | < 1e-05
A42G U57A G66U | < 1e-05 | – | – | – | –
G41U G66C C68U | < 1e-05 | < 1e-05 | – | < 1e-05 | < 1e-05
G44C G51A A53C | < 1e-05 | – | < 1e-05 | – | –
G41A G62A | < 1e-05 | < 1e-05 | < 1e-05 | < 1e-05 | –
A42C G60U | < 1e-05 | – | < 1e-05 | – | < 1e-05
U46G U49C | < 1e-05 | < 1e-05 | < 1e-05 | < 1e-05 | < 1e-05
G44U C50G A53U G59A C68A | < 1e-05 | – | – | – | –
G43C G66A | < 1e-05 | – | – | – | –
G44U A48U | < 1e-05 | < 1e-05 | – | < 1e-05 | < 1e-05
U47A C70U | 0.000803 ± 0.00012 | 0.00118 ± 0.00023 | 0.00993 ± 0.0023 | 0.0018 ± 0.00029 | 0.00221 ± 0.00048
G41C C67G | < 1e-05 | < 1e-05 | < 1e-05 | < 1e-05 | < 1e-05
G43C G44U C58U | < 1e-05 | – | – | – | < 1e-05
G43U C58U | < 1e-05 | < 1e-05 | < 1e-05 | < 1e-05 | –
G43U C58G | < 1e-05 | < 1e-05 | < 1e-05 | < 1e-05 | < 1e-05
G41C A64C | < 1e-05 | < 1e-05 | – | < 1e-05 | < 1e-05
G41A G51C | < 1e-05 | < 1e-05 | – | < 1e-05 | –
U45C G60C | < 1e-05 | < 1e-05 | < 1e-05 | < 1e-05 | < 1e-05
G44A U69A | < 1e-05 | < 1e-05 | < 1e-05 | < 1e-05 | < 1e-05
G44A U69G | < 1e-05 | – | < 1e-05 | < 1e-05 | < 1e-05
A42C C50U U69A | < 1e-05 | – | < 1e-05 | – | –
G44C G51A | < 1e-05 | < 1e-05 | < 1e-05 | < 1e-05 | < 1e-05

Variant | self-cleavage kobs at 40 uM GlcN6P (glucosamine-6-phosphate [1]) [s⁻¹] | self-cleavage kobs at 160 uM GlcN6P (glucosamine-6-phosphate [2]) [s⁻¹] | self-cleavage kobs at 10000 uM GlcN6P (glucosamine-6-phosphate [3]) [s⁻¹] | self-cleavage kobs at 640 uM GlcN6P (glucosamine-6-phosphate [4]) [s⁻¹] | self-cleavage kobs at 2500 uM GlcN6P (glucosamine-6-phosphate [5]) [s⁻¹]
A42C G51C | < 1e-05 | < 1e-05 | < 1e-05 | < 1e-05 | –
A42C G51U | < 1e-05 | < 1e-05 | < 1e-05 | < 1e-05 | –
G44U A52U G62C | < 1e-05 | < 1e-05 | – | – | < 1e-05
A42U A53G U56C C71U | < 1e-05 | – | – | – | –
A42G C67G | 0.000618 ± 0.00013 | 0.00112 ± 0.00024 | 0.0123 ± 0.0031 | 0.00232 ± 0.00045 | 0.00814 ± 0.0014
A42G U55G G62C | < 1e-05 | < 1e-05 | < 1e-05 | – | < 1e-05
G44C U65C | < 1e-05 | < 1e-05 | < 1e-05 | < 1e-05 | –
U46A G51A | < 1e-05 | < 1e-05 | < 1e-05 | – | < 1e-05
G41A G43C U49A C50G C58A | < 1e-05 | – | – | – | –
G44A C71A | < 1e-05 | < 1e-05 | – | < 1e-05 | < 1e-05
G44A G60A | < 1e-05 | < 1e-05 | < 1e-05 | < 1e-05 | < 1e-05
U46C G59C C68U | < 1e-05 | – | – | – | –
G44U U57C | < 1e-05 | – | < 1e-05 | < 1e-05 | < 1e-05
G44C C68A | < 1e-05 | < 1e-05 | < 1e-05 | < 1e-05 | < 1e-05
G43U C70G | < 1e-05 | < 1e-05 | < 1e-05 | < 1e-05 | < 1e-05
G44U G51C | < 1e-05 | < 1e-05 | < 1e-05 | < 1e-05 | < 1e-05
G43A G66U | < 1e-05 | – | – | – | < 1e-05
G41C G63C | < 1e-05 | – | < 1e-05 | < 1e-05 | < 1e-05
A42G A52U C70A | < 1e-05 | < 1e-05 | – | – | –
G43C U57A C70G | < 1e-05 | – | – | < 1e-05 | < 1e-05
U45C C50G | < 1e-05 | < 1e-05 | < 1e-05 | < 1e-05 | < 1e-05
G44C C61U | < 1e-05 | < 1e-05 | < 1e-05 | < 1e-05 | < 1e-05
G43C G63U | < 1e-05 | < 1e-05 | – | < 1e-05 | < 1e-05
G41U A64U | < 1e-05 | – | – | < 1e-05 | –
U45C U55C | 5.77e-05 ± 1.3e-05 | – | 0.00272 ± 0.00037 | – | 0.00199 ± 0.00054
